The record followed here is the nanobody polyreactivity screen of Harvey et al. (2022).

This data set is described as follows: yeast display, Sf9 membrane polyspecificity reagent, FACS + sequencing; frameworks hold sequencing errors. The procedure, abridged:
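Nanobodies from a synthetic yeast display library (Saccharomyces cerevisiae BJ5465), induced 36–48 hours with galactose, were stained 1 hour at 4 °C with 10% biotinylated, detergent-solubilized Sf9 membrane reagent, enriched on streptavidin microbeads, then FACS-sorted. Anti-HA (expression) and streptavidin (reagent binding) fluorescence set low and high (top ~1%) gates. Polyreactivity labels come from the gate of origin. Genes were colony-PCR amplified, MiSeq 2 × 250 sequenced and filtered by CDR length.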
Regarding “QVQLVESGGGLVQAGGSLRLSCAASGITFEPNDMGWYRQAPGKERELVAAISWSGGDTYYADSVKGRFTISRDNAKNTVYLQMNSLKPEDTAVYYCAAESWVAYEYWGQGTQVTVSS”, the “polyreactivity (PSR sort gate)” value is reported as “low polyreactivity”.
The entry for “QVQLVESGGGLVQAGGSLRLSCAASGITFFGYALGWYRQAPGKERELVADITTSDSTYYADSVKGRFTISRDNAKNTVYLQMNSLKPEDTAVYYCNADYYDGGYGPGVEEYDYWGQGTQVTVSS” is “low polyreactivity”.
In the case of “QVQLVESGGGLVQAGGSLRLSCAASGITFFGYAMGWYRQAPGKERELVATISRSGGSTSYADSVKGRFTISRDNAKNTVYLQMNSLKPEDTAVYYCNNRTPYLRPIMDYWGQGTQVTVSS” it was “high polyreactivity”; in that of “QVQLVESGGGLVQAGGSLRLSCAASGITFFLYGMGWYRQAPGKERELVAAISWSCASTYADSVKGRFTISRDNAKNTVYLQMNSLKPEDTAVYYCARDDNPIYSGVTYDYWGQGTQVTVSS”, “low polyreactivity”; in that of “QVQLVESGGGLVQAGGSLRLSCAASGITFFLYTMGWYRQAPGKERELVAAITWRGTSTYYADSVKGRFTISRDNAKNTVYLQMNSLKPEDTGVYYCAARSRRGGYPRYYYWGQGTQVTVSS”, “high polyreactivity”.
On to “QVQLVESGGGLVQAGGSLRLSCAASGITFFRYAMGWYRQAPGKERELVAAITTSGSSTFYADSVKGRFTISRDNAKNTVYLQMNSLTPEDTAVYYCATDYERYTWVGYLVTYYYWGQGTQVTVSS”, for which the “polyreactivity (PSR sort gate)” value is recorded as “high polyreactivity”.
Consider “QVQLVESGGGLVQAGGSLRLSCAASGITFFWYDMGWYRQAPGKERELVASISSGGTTSYADSVKGRFTISRDNAKNTVYLQMNSLKPEDTAVYYCAATHWNRWHFDYWGQGTQVTVSS”, for which the “polyreactivity (PSR sort gate)” value is “low polyreactivity”.
On to “QVQLVESGGGLVQAGGSLRLSCAASGITFFYYAMGWYRQAPGKERELVAAINWSGRTYYADSVKGRFTISRDNAKNTVYLQMNSLKPEDTAVYYCAAVTYGPGVSGMDYWGQGTQVTVSS”, for which the “polyreactivity (PSR sort gate)” value is on record as “low polyreactivity”.
Regarding “QVQLVESGGGLVQAGGSLRLSCAASGITFGANTMGWYRQAPGKERELVAAITISGGITHYADSVKGRFTISRDNAKNTVYLQMNRLKPEDTAVYYCAAGAYWRLYPYRQRNGGRMYYWGQGTQVTVSS”, the “polyreactivity (PSR sort gate)” value is “low polyreactivity”.
For “QVQLVESGGGLVQAGGSLRLSCAASGITFGAYAMGWYRQAPGKERELVAVITRGADTYYADSVKGRFTISRDNAKNTVYLQMNSLKPEETAVYYCAAQIDLPYYYGSDDDDYWGQGTQVTVSS”, the “polyreactivity (PSR sort gate)” value was “high polyreactivity”.
Take “QVQLVESGGGLVQAGGSLRLSCAASGITFGDNARGWYRQAPGKERELVAAISSGGSTDYADSVKGRFTISRDNAKNTVYLQMNSLKPEDTAVYYCAVDWVSVPEYDYWGQGTQVTVSS”: the “polyreactivity (PSR sort gate)” value is “low polyreactivity”.
With “QVQLVESGGGLVQAGGSLRLSCAASGITFGDNTMGWYRQAPGKERELVAAITYSSTSTYYADSVKGRFTISRDNAKNTVYLQMNSLKPEDTAVYYCAAEGPGDVVSTDYDYWGQGTQVTVSS”, the “polyreactivity (PSR sort gate)” value was “low polyreactivity”.
For the sequence “QVQLVESGGGLVQAGGSLRLSCAASGITFGGNAMGWYRQAPGKEMELVAAISWNGGRTYYADSVKGRFTISRDNAKNTVYLQMNSLKPEDTAVYYCNTPVFSKSSRKYYYWGQGTQVTVSS”, the “polyreactivity (PSR sort gate)” value is “high polyreactivity”.
Turning to “QVQLVESGGGLVQAGGSLRLSCAASGITFGGYAMGWYRKARGKERELVAAISWRGGRTYYADSVKGRFTISRDNAKNTVYIQMNSLKPDDTAVYYCAVGGTVYSTESDYWGQGTQVTVSS”, the “polyreactivity (PSR sort gate)” value was “high polyreactivity”.
The entry for “QVQLVESGGGLVQAGGSLRLSCAASGITFGPYAMGWYRQAPGKERELVAAITWGGGSTYYADSVKGRFTISRDNAKTTVYLQMNSLKPEDTAVSYCNAEGSTTSRYLPYDYWGQGTQVTVSS” is “low polyreactivity”; for “QVQLVESGGGLVQAGGSLRLSCAASGITFGPYAMGWYRQAPGKERELVATISSSGGSTYYADSVKGRFTISRDNAKNTVYLQMNSLKPEDTAVYYCAAEYYVISSPSFYEYDYWGQGTQVTVSS” it is “low polyreactivity”; for “QVQLVESGGGLVQAGGSLRLSCAASGITFGPYAMGWYRQATGKERELVAAINWSGGSTYYADSVKGRFTISRDNAKTTVYLQMNSLKPEDTAVYYCAAEPYKRLYQFYFWGQGTQVTVSS” it is “high polyreactivity”.
The entry for “QVQLVESGGGLVQAGGSLRLSCAASGITFGQYAMGWYRQAPGKERELVAVITSGGDTYYADSVKGRFTISRDNAKNTVYLQINSLKPEDTAVYYCNADDDLTSIYRYDYWGQGTQVTVSS” is “low polyreactivity”; for “QVQLVESGGGLVQAGGSLRLSCAASGITFGRNAMGWYRQAPGKERELVAAISRGGSTNYADSVKGRFTISRDNAKNTVYLQMNSLKPEDTAVYYCAAQYKYRRYPKVAFEYWGQGTQVTVSS” it is “high polyreactivity”.
In the case of “QVQLVESGGGLVQAGGSLRLSCAASGITFGRNAMGWYRQAPGKERELVAAISRGGSTNYADSVKGRFTISRDNAKNTVYLQMNSLKPEDTAVYYGNALSWPHGSWIPIHRRYGYWGQGTQVTVSS” it was “high polyreactivity”; in that of “QVQLVESGGGLVQAGGSLRLSCAASGITFGRNTMGWYRQAPGKERELVAAIDSGGNTYADSVKGRFTISRDNAKNTVYLQMNSLKPEDTAVYYCAAVVYAYLYADYDYWGQGTQVTVSS”, “low polyreactivity”.
For “QVQLVESGGGLVQAGGSLRLSCAASGITFGRNTMGWYRQAPGKERELVAAIDSGGNTYADSVKGRFTISRDNAKNTVYLQMNSLKPEDTAVYYCAVDGGEFSSYGYWGLGTQVTVSS”, the “polyreactivity (PSR sort gate)” value was “low polyreactivity”.
The entry for “QVQLVESGGGLVQAGGSLRLSCAASGITFGRNTMGWYRQAPGKERELVAAIDSGGNTYADSVKGRFTISRDNAKNTVYLQMNSLKPEDTAVYYCNARSYYGYGRYDYWGQGTQVTVSS” is “low polyreactivity”.
The entry for “QVQLVESGGGLVQAGGSLRLSCAASGITFGRNTMGWYRQAPGKERELVAAIDSGRNTYADSVKGRFTISRDNAKNPVYLQMNSLKPEYTAVYYCNADKSNFVRGYYWGQGTQVTVSS” is “low polyreactivity”; for “QVQLVESGGGLVQAGGSLRLSCAASGITFGRNTMGWYRQAPGKERELVASISYSGTTTYYADSVKGRFTISRDNAKNTVYLQMNSLKPEDTAVYYCNKRWRYYDMDYWGQGTQVTVSS” it is “low polyreactivity”.
As for “QVQLVESGGGLVQAGGSLRLSCAASGITFGRNTMGWYRQAPGKESELVAAIDSGGNTYADSVKGRFTISRDNAKNTVYLQMNSLKPEDTAVYYCAADNSVGEYQRVDYDYWGQGTQVTVSS”, the “polyreactivity (PSR sort gate)” value is recorded as “low polyreactivity”.
With “QVQLVESGGGLVQAGGSLRLSCAASGITFGSYAMGGYRQAPGKERELVAAITRRGDNTYYADSVKGRFTISRDNAKNTVYLQMNSLKPEDTAVYYCNAAKGGRYPDYDYWGQGTQVTVSS”, the “polyreactivity (PSR sort gate)” value is recorded as “high polyreactivity”.
In the case of “QVQLVESGGGLVQAGGSLRLSCAASGITFGSYAMGWYRQAPGKERELVAAISRSGGSTYYADSVKGRFTISRDNAKNTVYLQMNSLKPEDTAVYYCAVRYVYYREGDYWGQGTQVSVSS” it was “high polyreactivity”; in that of “QVQLVESGGGLVQAGGSLRLSCAASGITFGSYAMGWYRQAPGKERELVAAISRSGGSTYYADSVKGRFTISRDNEKNTVYLQMNSLKPEDTAVYYCAVRYVYYREGDYWGQGTQVTVSS”, “high polyreactivity”; in that of “QVQLVESGGGLVQAGGSLRLSCAASGITFGSYAMGWYRQAPGKERELVAAITWRGGSTFYADSVKGRFTISRDNAKNTVYLQMNSLKPDDTAVYYCAATLTKYLPRYYWGQGTQVTVSS”, “low polyreactivity”.
